Source: patent publication US20160060347A1 (MorphoSys, published 2016)
Each block holds one binder with its values, some of them ahead of it.

Columns and labels:
[1] = biological target: T1, hu_CXCR2_N-term (1-17)-BSA (human; bovine, coupled to carrier protein BSA; C-terminal cysteine introduced to enable coupling); assay: ELISA, coated peptide-BSA, IgG1
T1 construct: Synthetic linear peptide chemically coupled to the carrier; also called CXCR2_aa1-17_BSA; CXCR2 aa1-17 BSA
Method: (§1) 384-well Maxisorp plates (Nunc; Cat. #460518) were coated with respective CXCR2 and control peptides coupled either to BSA or Transferrin (TRF) at 1-5 μg/mL and incubated o/n at 4° C. […] After three washing steps, antibodies were added at 5-10 μg/mL and titrated in some experiments. Antibodies were incubated 1 h at room temperature and plates were subsequently washed. Binding of anti-CXCR2 antibodies was detected by using alkaline phosphatase-conjugated anti-human IgG, (Dianova, Cat #109-055-097). AttoPhos fluorescence substrate (Roche, Cat #1484281) was added according to instructions of the manufacturer and fluorescence was measured (excitation at 430 nm, emission at 535 nm) using a microplate reader.

[2] = biological target: T2, N-terminal peptide aa1-48, BSA-coupled (human; bovine, coupled to carrier protein BSA; C-terminal cysteine introduced to enable coupling); assay: ELISA, coated peptide-BSA, IgG1
T2 construct: also called CXCR2 aa1-48 BSA
T2 sequence (P02769 25-607 limits assumed): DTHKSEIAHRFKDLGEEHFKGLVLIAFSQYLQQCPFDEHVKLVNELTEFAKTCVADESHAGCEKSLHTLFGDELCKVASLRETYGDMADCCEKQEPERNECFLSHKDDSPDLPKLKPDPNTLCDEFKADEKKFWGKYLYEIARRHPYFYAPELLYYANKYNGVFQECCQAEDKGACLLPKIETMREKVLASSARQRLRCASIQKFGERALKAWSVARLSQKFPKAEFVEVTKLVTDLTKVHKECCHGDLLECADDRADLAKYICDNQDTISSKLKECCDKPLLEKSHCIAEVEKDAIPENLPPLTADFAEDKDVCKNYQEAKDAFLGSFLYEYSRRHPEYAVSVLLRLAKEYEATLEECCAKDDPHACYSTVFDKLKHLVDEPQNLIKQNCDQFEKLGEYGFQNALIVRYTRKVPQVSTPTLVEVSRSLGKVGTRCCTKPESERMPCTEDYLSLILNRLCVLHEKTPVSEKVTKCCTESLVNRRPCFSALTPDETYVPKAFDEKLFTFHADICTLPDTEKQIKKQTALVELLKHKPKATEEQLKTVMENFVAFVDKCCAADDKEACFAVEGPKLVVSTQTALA
Method: as §1

[3] = biological target: T3, ECL3 peptide aa273-295, BSA-coupled (human; bovine, coupled to carrier protein BSA; C-terminal cysteine introduced to enable coupling); assay: ELISA, coated peptide-BSA, IgG1
T3 construct: also called CXCR2 aa273-295 BSA; peptides representing the extracellular domain 3
T3 sequence (peptide, as listed by the source limits assumed, chain 1 of 2): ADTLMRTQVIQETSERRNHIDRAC
T3 sequence (P02769 25-607 limits assumed, chain 2 of 2): as the sequence (P02769 25-607 limits assumed) above
Method: as §1

[4] = biological target: T4, human CXCR2 (human, UniProt P25025 1-360); assay: FACS, CXCR2 CHO Flp-In cells, IgG1
T4 construct: Expressed on Flp-In CHO cells (FACS, Fab-ZAP, ADCC, CDC) or on bought PathHunter CHO cells (beta-arrestin assay); the construct in the PathHunter cells is not described; also called chemokine receptor CXCR2; CXCR2 CHO Flp-In cells
T4 sequence: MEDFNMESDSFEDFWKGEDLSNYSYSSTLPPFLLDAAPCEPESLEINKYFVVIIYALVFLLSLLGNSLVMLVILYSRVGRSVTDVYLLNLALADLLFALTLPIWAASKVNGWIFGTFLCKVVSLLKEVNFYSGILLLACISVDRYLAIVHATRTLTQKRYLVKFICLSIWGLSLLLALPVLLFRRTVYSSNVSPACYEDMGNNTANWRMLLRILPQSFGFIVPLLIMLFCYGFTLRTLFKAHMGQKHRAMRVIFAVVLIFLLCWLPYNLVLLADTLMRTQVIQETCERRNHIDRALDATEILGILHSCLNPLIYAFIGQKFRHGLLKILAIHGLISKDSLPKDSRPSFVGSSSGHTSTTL
Method: (§2) Human CXCR2-expressing Flp-In™ CHO cells were harvested at ˜80% confluence washed once with PBS (Gibco, Cat #14190-094) and detached using Versene (Invitrogen, Cat #15040-033). Subsequently, cells were counted and centrifuged at 250×g for 5 min at 4° C. Afterwards, cells were diluted in Superblock (Thermo Fisher Perbio Science, Cat #37515) to a cell concentration of 2E+05-1E+06/mL and 100 μL/well were transferred to 96-well microtiter plate (Nunc, Cat#163320). Cells were once centrifuged, supernatant discarded and antibodies added at 1 μg/mL (unless stated otherwise), incubated for 1 h at 4° C. and washed twice with FACS buffer (PBS/3% FCS/0.02% NaN3). Binding of anti-CXCR2 antibodies was detected by incubation of Phycoerythrin-conjugated anti-human IgG (Dianova, Cat #109-116-097) for 1 h at 4° C. Samples were subsequently measured using FACS Array (Becton Dickinson).

[5] = biological target: T1, hu_CXCR2_N-term (1-17)-BSA; assay: ELISA, coated peptide-BSA, IgG
Method: as §1

[6] = biological target: T2, N-terminal peptide aa1-48, BSA-coupled; assay: ELISA, coated peptide-BSA, IgG
Method: as §1

[7] = biological target: T3, ECL3 peptide aa273-295, BSA-coupled; assay: ELISA, coated peptide-BSA, IgG
Method: as §1

[8] = biological target: T4, human CXCR2; assay: FACS, CXCR2 CHO Flp-In cells, IgG
Method: as §2

T1 sequence (P02769 25-607 limits assumed): as the sequence (P02769 25-607 limits assumed) above

binding result [1]: binds
binding result [2]: binds
binding result [3]: binds
binding result [4]: binds
B1: CX2-Mab #1.2 (antibody, IgG1, V domains shown)
VH: QVQLVQSGAEVKKPGSSVKVSCKASGGTFSSYAISWVRQAPGQGLEWMGGIIPIVGEAKYAQKFQGRVTITADESTSTAYMELSSLRSEDTAVYYCARDSSGYDGYYAFAYWGQGTQVTVSS
VL: DIVLTQPPSVSGAPGQRGTISCSGSSSNIGSSSVNWYQQLPGTAPKLLIYRNNQRPSGVPDRFSGSKSGTSASLAITGLQAEDEADYYCATADQRGIVFGGGTKLTVLG

binding result [5]: binds
binding result [6]: binds
binding result [7]: binds
binding result [8]: binds
B2: CX2-Mab #7 (antibody, IgG1, V domains shown)
VH: QVQLLESGGGLVQPGGSLRLSCAASGFTFSRYWMSWVRQAPGKGLEWVSVISYSGSETYYADSVKGRFTISRDNSKNTLYLQMNSLRAEDTAVYYCARGRAYGYFDPWGQGTLVTVSS
VL: DIVLTQPPSVSGAPGQRVTISCSGSSSNIGKKTVSWYQQLPGTAPKLLIYRNNQRPSGVPDRFSGSKSGTSASLAITGLQAEDEADYYCQSTDSTTEIVFGGGTKLTVLG

binding result [5]: binds
binding result [6]: binds
binding result [7]: binds
binding result [8]: binds
B3: CX2-Mab #8 (antibody, IgG1, V domains shown)
VH: QVQLVQSGAEVKKPGESLKISCKGSGYSFTNYWIAWVRQMPGKGLEWMGIIDPSNSDTRYSPSFQGQVTISADKSISTAYLQWSSLKASDTAMYYCARGRYYGFFDYWGQGTLVTVSS
VL: DIVLTQPPSVSGAPGQRVTISCSGSSSNIGSTYVSWYQQLPGTAPKLLIYRNNNRPSGVPDRFSGSKSGTSASLAITGLQAEDEADYYCQVRALGTSSVVFGGGTKLTVLG
